We go through 15 sequences from a protein production outcome set (Wang et al. 2014).

A short description of this data set: label from the status in PepcDB records.

As for “MERQVLLSEPEEAAALYRGLSRQPALSAACLGPEVTTQYGGQYRTVHTEWTQRDLERMENIRFCRQYLVFHDGDSVVFAGPAGNSVETRGELLSRESPSGTMKAVLRKAGGTGPGEEKQFLEVWEKNRKLKSFNLSALEKHGPVYEDDCFGCLSWSHSETHLLYVAEKKRPKAESFFQTKALDVSASDDEIARLKKPDQAIKGDQFVFYEDWGENMVSKSIPVLCVLDVESGNISVLEGVPENVSPGQAFWAPGDAGVVFVGWWHEPFRLGIRFCTNRRSALYYVDLIGGKCELLSDDSLAVSSPRLSPDQCRIVYLQYPSLIPHHQCSQLCLYDWYTKVTSVVVDVVPRQLGENFSGIYCSLLPLGCWSADSQRVVFDSAQRSRQDLFAVDTQVGTVTSLTAGGSGGSWKLLTIDQDLMVAQFSTPSLPPTLKVGFLPSAGKEQSVLWVSLEEAEPIPDIHWGIRVLQPPPEQENVQYAGLDFEAILLQPGSPPDKTQVPMVVMPHGGPHSSFVTAWMLFPAMLCKMGFAVLLVNYRGSTGFGQDSILSLPGNVGHQDVKDVQFAVEQVLQEEHFDASHVALMGGSHGGFISCHLIGQYPETYRACVARNPVINIASMLGSTDIPDWCVVEAGFPFSSDCLPDLSVWAEMLDKSPIRYIPQVKTPLLLMLGQEDRRVPFKQGMEYYRALKTRNVPVRLLLYPKSTHALSEVEVESDSFMNAVLWLRTHLGS”, the protein production entry was “failed”.
As for “MERRLTTILAADLSGYSRLMAADEEGTVTRLRHLFADIVRPDLSREGGRLIKTMGDGMLVEFASPVAALRSAVAILQQVARDQVETAPDTRMLFRVGIHLGDVISDGDDILGDAVNIAARLESLATPGGICISRSVHDQVRGKVDAELIELGPQPVKNIPDPVEVWRVGAEGIACAAEKPAVRAELPAVVILPFDNMSADPEQDFLADGIVEDVTTELSRFRTLTVIARNSAFAYKGSHKDVRQIAEELGVRYVVEGSVRRAGDRLRATAQLIDARTGAHVWADRWDRTMADLFDLQDELTAAILSGVEPELGAHERNLARRKPTDSLTAWEMCQKGYSEFTRYTDEGYSQAHAYYTRAIAADPDFALPHALLARLAWVKVITGRTRDPAAEISTGLDHAAQAIERDDRLEIGYVALGVLLAITGREQDAADALDKAEALNPNNAVLHFGRCHACLFMQRLDCDRLERAARTALRLNPKDPMAWGFWFQLGNAFTFRDIDAAEPEALAAYETACRFANADYFVFMATALKHAKLGNRDKAAHYLAQARERYPALTAEFWRRAFRFPIWSRWVAADEPNIQLLIDLGLPQK”, the entry is “failed”; as for “MERVAVVGVPMDLGANRRGVDMGPSALRYARLLEQLEDLGYTVEDLGDVPVSLARASRRRGRGLAYLEEIRAAALVLKERLAALPEGVFPIVLGGDHSLSMGSVAGAARGRRVGVVWVDAHADFNTPETSPSGNVHGMPLAVLSGLGHPRLTEVFRAVDPKDVVLVGVRSLDPGEKRLLKEAGVRVYTMHEVDRLGVARIAEEVLKHLQGLPLHVSLDADVLDPTLAPGVGTPVPGGLTYREAHLLMEILAESGRVQSLDLVEVNPILDERNRTAEMLVGLALSLLGKRIF”, “not failed”; as for “MERYTKKNERFKAEEGKGSKKSRTFLTERERRALFNDRFFDLKNLIPNPTKGGEASIVQDGIVYINELQRLVSELKYLVEKKKCGARHNNIEVDNKNTIYGTSKIEHPFSKNKNTFNCLIRTLRFVHHF”, “failed”.
Take “MESAPSRLDGDRPRLSVRLLGPLEILRDGVPLALPASRKLRALLAYLALAPHAVGRGRLCELLWDVPNDPRGELRWCLSKLRAALDTPDRRRVTTQGDAVALDLDGCLVDALEISQAAAQGIATLDVERLQGLAGLFAGDLLDGLELERSPHFDSWLVAQRRRFDAYHAAVLEQLAASLPADCDETVSRLDRWIELAPFDTRAHAALLASLARRGEIGAAEQHLASAERLFQSEDLDFAPLRQAWRSIRDQRASHQAQPAGLPTPSHLVAASGDTGPVEPSHASLAVMPFVDESGARGGLADGFTHDIITRLAKLRDFFVIARGSVFALAEKAIAPEEAGRKLGVDYVASGTVRSLTGRLIVSVELVEVRTARIVWAETFERRPHDLFAVLDDIGDSIVSSISAEIETVERNRAMLKAPNSLNAWEAYHRGLWHMYRFTQAENEQARHFFDKALQLDPTFARAYAGLSFTHWQNAFQRWGDRDRESALAYESAGHSLLVDDHNPAAHWAMGRALWLRGEQDGSLAELERAVDLSPNFALGHYALSFVHSQSGDPQAAIGSSDHSRHLSPFDPLLFGMLGSRAMSHVRLGQFEEAAEWALKAAARPNAHTIILAIAAHCLALAGRLDEARGFAAAIRKTLPDYRADDFIGTFRFDPDAEALFRQGARRIGFS”: the protein production entry is reported as “failed”.
“MESESSGLSFPLGLYDAIIAHARSVFPEECCGLVAAPAGGAPIRVIPMENALHSPVRYEMNPKEQFQVQKNLRREGLEMWAIYHSHPVTRPYPSETDIRLAFYPELYYLLTSLAEDPPPLKAYTIQNGVVREIPLKVSPGES”: the protein production result is “failed”.
Turning to “MESNLTYTEALLKLEEIVEQIEDDSIMLDTLTEKVMQANELIKYCETKLRTIEGDVRDVLQ”, the protein production result was “failed”.
For the sequence “MESVRIEQMLSLPAEVSSDNLESAERGASAAQVDMGPHPKVAAEGPAPLPTREPEQEQSPGTSTPESKVLLTQADALASRGRIREALEVYRQLSERQQLVAEQLEQLVRCLAEKVPQGEALAPAPPDEGSTASGTVAAEETGAAAAAAATEVWDGFKCRKCHGFLSDPVSLSCGHTFCKLCLERGRAADRRCALCGVKLSALMVATGRARGARRAGQQPPPPLRVNVVLSGLLGKLFPGPARASQLRHEGNRLYRERQVEAALLKYNEAVKLAPNDHLLYSNRSQIYFTLESHENALHDAEIACKLRPMGFKDNLELPHCSSQEEAAARGDGSSLMDPAKVKGDGQQHHMKDQEEEEEKWDATSPKAASSKTGKCQEKKRKHCQIESQEETGMPNKASKQDPPTDQGDKPALSLPLASFDASDLECALCMRLFYEPVTTPCGHTFCLKCLERCLDHNAKCPLCKDGLSQCLASRKYSKNVIMEELIAKFLPEELKERRKLYEEEMEELSNLNKNVPIFVCTMAYPTVPCPLHIFEPCYRLMIRRCIETGTRQFGMCLGDPVKGFAEYGCILEIRNVQFFADGRSVVDSIGKRRFRVLHQSQRDGYNTADIEYIEDQKVQGEDCAELMGLHNCVYQQASLWFHSLKLSLKNRILNHFGPMPEKDADPQMNPNGPAWCWWMLAVLPLESRAQLPFLAMRSLKDRLNGIRRVLAFISRNQN”, the protein production result is listed as “failed”.
Consider “MESYSPAQTCLELVPVLADDSISAASTSDVQDRLSALESRVQQQEDEITVLKAALADVLRRLAISEDHVASVKKSMPSKGQPSLREAISMSCITNGSGINRKQNHTSSISIARKETLSSAAKSGTEKKKEKPQGQREKKEESHSNDQSPQIRASPSPQPSSQPLQINRQTPESKSSAPTKSIKRPPTAEKSHNSWENSDDSRNKLLKTVSTSKLISKVIKNTDKHKDVIINQAKMSTREKSSQEGEYIKMFMRGRPITMFIPSDVDNYDDIRTELPPEKLKLEWVYGYRGKDCRANVYLLPTGEIVYFIASVVVLFNYEERTQRHYLGHTDCVKCLAVHPDKIRMATGQIAGVDKDGRPLQPHVRVWDSVSLSTLHVIGLGTFERGVGCLDFSKADSGVHLCVIDDSNEHMLTVWDWQRKSKVAEIKTTNEVVLAVEFHPTDANTIITCGKSHIFFWTWSGNSLTRKQGIFGKYEKPKFVQCLAFLGNGDVLTGDSGGVMLIWSKTTIEPPPGKGPKGVYQISRQIKAHDGSVFTLCQMRNGMLLTGGGKDRKIILWDHDLNLEREIEVPDQYGTIRAVAEGKAEQFLVGTSRNFILRGTFNDGFQIEVQGHTDELWGLATHPFKDLLLTCAQDRQVCMWNSVEHRLEWTRLVDEPGHCADFHPSGTVVAIGTHSGRWFVLDAETRDLVSIHTDGNEQLSVMRYSVDGTLLAVGSHDNFIYLYAVSENGRKYSRYGKCTGHSSYITHLDWSPDNKHIMSNSGDYEILYWDIENGCKLIRNRSDCKDIDWTTYTCVLGFQVFGVWPEGSDGTDINALVRSHHRRVIAVADDFCKVHLFQYPCSKPKAPSHKYSAHSSHVTNVSFTHNDSHLISTGGKDMSIIQWKLVEKLPLPQNEVIADTSSTKAPASATENARLCNAPQPPSQPLPGTAEEESRVSSSPTLVENSLEQSEWGSEDLGVVIDEEPASERGEKQGAAEASEEEQGAAPLC”, for which the protein production entry is listed as “failed”.
For “METESIKLDVQVTTTSQDPSLGLLSTVIITLDRDLEEYDENVDSIKSLGSYPDSSTPDESLIILKLPTSEPDYIYLTLRSKLKDHLHDHVLSEEIADQIFEAQLGTQSIDQFPFQQPLFMLVSVKLTQKLYTYAPCNASPLATDLTKRAK”, the protein production entry is recorded as “failed”.
For “METGTHVRDVIFPGGNAAPDAGSVVAAIHQLPTLRLLSLDAHGRVLDWINWQDAACLYARDAVSWTLGEPCMQIHGGISRLTGERSTLELHPIIAARGHARSRALDPTPTLSNTALFARDAQLCMYCGQHFSRPHLTRDHVMPVSKGGRDSWENVVTACFQCNSRKANRTPQQAHMPLLAVPYRPSWIEHLILSNRNILSDQMAFLRAQLPKRSKLSLQAGAPRVADPG”, the protein production result is listed as “failed”.
As for “METKQDNLIYVWDAYCGWCYGFSESIKGFYKNHTEVPLTVLCGGLFLDNLPMKNFSYIEEGNKRINQLTGAEFGPSYQKLVEEGTFKMNSKDAAIGFSALRSLAPDRLLEFTSAMQKAFYYEGQSLSDPETYRKIAIEHGLDPEQVLERLNAQETIIDVQNDFNKVRQLGVNSYPSLLLQKDNQIIPIGGGVMTPDKIEARFKNLY”, the protein production entry is “failed”.
Consider “METLSDVFATFSQRGDTTAFVHRTGVRRYVFTYLDLHALSLRMNRWLADQGVGEGDRVVLWGPNSPWWAVAFWGIVTRGAVAVPVDFMSGAERAEIIAGLTDAKLVIQSRDKLDRLTGRPSVLLEELGFLLEAVEPLATTHRPAPDDMAELIYTSGTTGNPKGVILTHRNLVANILQVNRHIPVVTPDFSFLSLLPLSHMFEQMGGFFTPLYRGAAIVYIRTLKPSAIMEALGEEDIYAIIAVPRLLQLLKGSVERELEAKGLGSIFRWLLKVGERMSRGGRSVLFRPIQRKFGRNFALFVSGGAPLDPEVFRFWNGLGFRVVEGYGLTECSPVLTANTMERQVMGSVGTPLDGVELRLEEGEILARGDNIFPGYFRNEEATRGAFVDGWFRTGDLGELDPDGWLRIKGRSKELIVTGAGVNVYPDEIEAILNRTQGVREGCVIGLDRGKGEEVHGVLILDGSGRPTEEIVNEVNAKFDELHRITSFSVWPEAEFPKTTTLKIRKFQVKERIEQGGGALGDGRGADRLTALVATITGSPLEQVTEGALLVNDLGLTSIARLELVNALEMEFRLDLEDSVIGPQTRVADLREIVSRREKVHIREHFRIWAMGGVALAVRRLLDTVLHGPLLRAFVTLKSLGIENLEAADGPVMFVSNHLSYLDQPAIMCVLPDAWRYNTATAAWEEFFFRNFKNLPQRLWKRFTYEYASVAFTVFPLPQSRGFRGALHFMGTLADQGMNILLFPEGERSRDGRLLPFQQGLGVMIRELGVPVVPVRIRGLEKVLPRGASWPQKGEVSITFGKPIHFRGESPTEIVDRARRAVEDLLEHHHHHH”, for which the protein production entry was “failed”.
Regarding “METNKNFAVIGLGEFGSRICEVLVDGGASVVAFDHDIQAVERIKKIVPAAMLVETTNEEALLKAPLDDVEVAIVAIGNNIEASVLTTTLLKQRDIPYVLARAVSPLHATVLRRVGANEVLNIEISAATRIARRLISPDVMDSIAVTKDFSIREIIVPKFFIGKTVGSVALKEKFNITLIALVRMALDIDSVGNPVKQEVMHYPEDDFELREGDKLFLIGSNIKLEEFRNM”, the protein production entry is recorded as “failed”.
As for “METPYHQRWLAFPDAVSSYRPLESRLAGTSRATADNRTPCTGRLGTPRVFLMATDDVSKAYSSPTFDAEALLGTVISAEDPDRVLIEPWATGVDGVILDVGSGTGRWTGHLASLGHQIEGLEPATRLVELARQTHPSVTFHHGTITDLSDSPKRWAGLLAWYSLIHMGPGELPDALVALRMAVEDGGGLLMSFFSGPSLEPMYHPVATAYRWPLPELAQALETAGFQVTSSHWDPRFPHAYLTAEASLEHHHHHH”, the entry is “not failed”.
